According to patent publication US20190263934A1:

Experiments:
[1] = target: biotinylated human FcRn (hFcRn; p51 subunit residues 24-297 with C-terminal Avi-tag, β2-m residues 21-119) (human) (UniProt P55899); experiment: Biacore SPR, pH 7.4, steady state, 1000 nM antibody
[2] = target: biotinylated human FcRn (hFcRn; p51 subunit residues 24-297 with C-terminal Avi-tag, β2-m residues 21-119) (human) (UniProt P55899); experiment: Biacore SPR, pH 6.0, apparent affinity
[3] = target: biotinylated human FcRn (hFcRn; p51 subunit residues 24-297 with C-terminal Avi-tag, β2-m residues 21-119) (human) (UniProt P55899); experiment: Biacore SPR, Biotin CAPture, pH 7.4, 1000 nM antibody, steady state
rFcRn (rat) [4] = target: rFcRn (rat) (UniProt P13599); experiment: SPR Biacore, pH 6.0
Target sequence in this assay (P13599 23-298 limits assumed, form in doubt, chain 1 of 2): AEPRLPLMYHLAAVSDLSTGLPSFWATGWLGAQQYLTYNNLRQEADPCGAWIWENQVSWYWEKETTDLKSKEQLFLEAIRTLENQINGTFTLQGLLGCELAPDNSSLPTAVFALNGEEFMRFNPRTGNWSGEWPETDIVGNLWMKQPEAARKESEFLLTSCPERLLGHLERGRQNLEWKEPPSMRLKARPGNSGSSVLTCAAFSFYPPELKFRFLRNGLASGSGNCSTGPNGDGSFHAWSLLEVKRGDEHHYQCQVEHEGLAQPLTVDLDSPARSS
Target sequence in this assay (P07151 21-119 limits assumed, form in doubt, chain 2 of 2, further chain): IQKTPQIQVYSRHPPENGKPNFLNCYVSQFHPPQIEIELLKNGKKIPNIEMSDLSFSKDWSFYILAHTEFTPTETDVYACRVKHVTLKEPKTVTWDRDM

[5] = target: biotinylated hFcRn (human) (UniProt P55899); experiment: SPR Biacore, pH 6.0
rFcRn (rat) [6] = target: rFcRn (rat) (UniProt P13599); experiment: SPR Biacore, pH 7.4
Target sequence in this assay (P13599 23-298 limits assumed, form in doubt, chain 1 of 2): as the sequence (P13599 23-298 limits assumed, form in doubt, chain 1 of 2) above
Target sequence in this assay (P07151 21-119 limits assumed, form in doubt, chain 2 of 2, further chain): as the sequence (P07151 21-119 limits assumed, form in doubt, chain 2 of 2, further chain) above

[7] = target: biotinylated hFcRn (human) (UniProt P55899); experiment: SPR Biacore, pH 7.4
rFcRn (rat) [8] = target: rFcRn (rat) (UniProt P13599); experiment: SPR Biacore, pH 7.4, 1000 nM antibody
Target sequence in this assay (P13599 23-298 limits assumed, form in doubt, chain 1 of 2): as the sequence (P13599 23-298 limits assumed, form in doubt, chain 1 of 2) above
Target sequence in this assay (P07151 21-119 limits assumed, form in doubt, chain 2 of 2, further chain): as the sequence (P07151 21-119 limits assumed, form in doubt, chain 2 of 2, further chain) above

[9] = target: biotinylated hFcRn (human) (UniProt P55899); experiment: SPR Biacore, pH 7.4, 1000 nM antibody
rFcRn (rat) [10] = target: rFcRn (rat) (UniProt P13599); experiment: Biacore SPR, pH 6.0, bivalent fit
Target sequence in this assay (P13599 23-298, form in doubt, chain 1 of 2): as the sequence (P13599 23-298 limits assumed, form in doubt, chain 1 of 2) above
Target sequence in this assay (P07151 21-119, form in doubt, chain 2 of 2, further chain): as the sequence (P07151 21-119 limits assumed, form in doubt, chain 2 of 2, further chain) above

[11] = target: biotinylated hFcRn (human) (UniProt P55899); experiment: SPR Biacore, pH 6.0; remark: listed apart in the source
[12] = target: biotinylated hFcRn (human) (UniProt P55899); experiment: Biacore SPR, pH 6.0, bivalent fit
[13] = target: biotinylated human FcRn (hFcRn; p51 subunit residues 24-297 with C-terminal Avi-tag, β2-m residues 21-119) (human) (UniProt P55899); experiment: Biacore SPR; second ratio column (inverse of c7)
[14] = target: biotinylated human FcRn (hFcRn; p51 subunit residues 24-297 with C-terminal Avi-tag, β2-m residues 21-119) (human) (UniProt P55899); experiment: Biacore SPR; pH 6.0 affinity (M^-1) over pH 7.4 steady state RU

Row | Kd (rFcRn (rat) [4]) | koff (rFcRn (rat) [4]) | kon (rFcRn (rat) [4]) | Kd [5] | koff [5] | kon [5] | Steady State RU (rFcRn (rat) [6]) | Steady State RU [7] | Steady State RU (rFcRn (rat) [8]) | Steady State RU [9] | Kd (rFcRn (rat) [10]) | Substance | also measured
1 | 3.89 nM | 0.0004 s⁻¹ | 104000 M⁻¹ s⁻¹ | 42.9 nM | 0.0246 s⁻¹ | 574000 M⁻¹ s⁻¹ | 62.5 RU | 34.2 RU | – | – | – | mAb1 T307Q/N434F (antibody) | –
2 | 8.43 nM | 0.00273 s⁻¹ | 324000 M⁻¹ s⁻¹ | 128 nM | 0.0757 s⁻¹ | 592000 M⁻¹ s⁻¹ | 55.1 RU | 9.8 RU | – | – | – | mAb1 M252Y/T256E (antibody) | –
3 | 279 nM | – | – | – | – | – | – | – | 15.3 RU | 4.4 RU | 279 nM | mAb1 T307M (antibody) | –
4 | 7.53 nM | 0.00081 s⁻¹ | 108000 M⁻¹ s⁻¹ | 78.2 nM | 0.0419 s⁻¹ | 536000 M⁻¹ s⁻¹ | 59 RU | 23.3 RU | – | – | – | mAb1 T256E/N434F (antibody) | –
5 | 4.11 nM | 0.00048 s⁻¹ | 116000 M⁻¹ s⁻¹ | 32.4 nM | 0.0202 s⁻¹ | 622000 M⁻¹ s⁻¹ | 63 RU | 38.4 RU | – | – | – | mAb1 T307Q/N434Y (antibody) | –
6 | 25 nM | – | – | 3100 nM | – | – | 50.5 RU | – | 57.7 RU | – | 25 nM | mAb1 M252Y (antibody) | Kd [11]: > 3000 nM; Kd [12]: 3100 nM
7 | 2.7 nM | 0.00057 s⁻¹ | – | 38.2 nM | – | – | 65.1 RU | 30.5 RU | – | – | – | mAb1 T307W/N434F (antibody) | –
8 | 113 nM | – | – | – | – | – | 17 RU | 4.5 RU | 23 RU | 4.8 RU | 113 nM | mAb1 T256E (antibody) | Kd [11]: > 3000 nM
9 | 5.21 nM | 0.00109 s⁻¹ | 208000 M⁻¹ s⁻¹ | 118 nM | 0.057 s⁻¹ | 483000 M⁻¹ s⁻¹ | 66.1 RU | 15.9 RU | – | – | – | mAb1 M252Y/T307W (antibody) | –
10 | 194 nM | – | – | – | – | – | – | – | 4.3 RU | 3.5 RU | 194 nM | mAb1 N434P (antibody) | –
11 | 0.6 nM | 0.00025 s⁻¹ | 413000 M⁻¹ s⁻¹ | 15.6 nM | 0.0285 s⁻¹ | 1.83e+06 M⁻¹ s⁻¹ | 71.6 RU | 37.1 RU | – | – | – | mAb1 T256D/N434Y (antibody) | –

Second part, the substance before the results:

Row | Substance | Kd (rFcRn (rat) [4]) | koff (rFcRn (rat) [4]) | kon (rFcRn (rat) [4]) | Kd [5] | koff [5] | kon [5] | Steady State RU (rFcRn (rat) [6]) | Steady State RU [7] | Steady State RU (rFcRn (rat) [8]) | Steady State RU [9] | Kd (rFcRn (rat) [10]) | also measured
12 | mAb1 YTWY variant (M252Y/T307W/N434Y) (antibody) | – | – | – | – | – | – | – | – | – | – | – | Steady State Binding, pH 7.4 (RU) [1]: 75.1 RU; Ka [2]: 1.06e+08 M⁻¹; pH 7.4 RU [3]: 77.1 RU
13 | mAb1 K288D (antibody) | 149 nM | – | – | – | – | – | – | – | 21.9 RU | 3.8 RU | 149 nM | –
14 | mAb1 T307F (antibody) | 131 nM | – | – | – | – | – | – | – | 21.9 RU | 4.9 RU | 131 nM | –
15 | mAb1 YDWF variant (M252Y/T256D/T307W/N434F) (antibody) | – | – | – | – | – | – | – | – | – | – | – | Steady State Binding, pH 7.4 (RU) [1]: 71.8 RU; Ka [2]: 1.66e+08 M⁻¹; pH 7.4 RU [3]: 75.7 RU
16 | mAb1 E380C (antibody) | 6310 nM | – | – | – | – | – | – | – | 27.7 RU | 5.7 RU | 6310 nM | –
17 | mAb1 T307W (antibody) | 111 nM | – | – | 8740 nM | – | – | 21.9 RU | – | 19.2 RU | – | 111 nM | Kd [11]: > 3000 nM; Kd [12]: 8740 nM
18 | mAb1 M252Y/N434F (antibody) | 0.29 nM | 0.00012 s⁻¹ | 403000 M⁻¹ s⁻¹ | 18 nM | 0.023 s⁻¹ | 1.27e+06 M⁻¹ s⁻¹ | 79.3 RU | 43.8 RU | – | – | – | –
19 | mAb1 T256E/T307Q (antibody) | 10.7 nM | – | – | 499 nM | – | – | 23.4 RU | – | – | – | – | –
20 | mAb1 Y436H (antibody) | 131 nM | – | – | – | – | – | – | – | 16.3 RU | 3.6 RU | 131 nM | –
21 | mAb1 Y436W (antibody) | 1140 nM | – | – | – | – | – | – | – | 10.3 RU | 3.7 RU | 1140 nM | –
22 | mAb1 M252Y/T307Q (antibody) | 4.11 nM | 0.00105 s⁻¹ | 255000 M⁻¹ s⁻¹ | 278 nM | 0.096 s⁻¹ | 345000 M⁻¹ s⁻¹ | 49.2 RU | 10.6 RU | – | – | – | –
23 | mAb1 YTQF variant (M252Y/T307Q/N434F) (antibody) | – | – | – | – | – | – | – | – | – | – | – | Ratio (pH 7.4/pH 6.0) [13]: 1.06e-06; Steady State Binding, pH 7.4 (RU) [1]: 59.9 RU; Ka [2]: 5.65e+07 M⁻¹; Ratio (pH 6.0/pH 7.4) [14]: 943000
